{"source": "the domain aggregation screens of Martell et al. (2025)", "experiment": "soluble fraction after stress (log2 fold change); higher = more stays soluble; pooled small domains, quantitative proteomics", "conditions": "stress: 75 degC"}
{"sequence": "HMGVLGVDALAAAAEVSVDTVRYYQHLGLLEPPRREGRRAVYGPSHLARMGEIRRLAAAGFTLDQIRQLAE", "values": [{"measurement": "soluble fraction (log2)", "result": -2.81}]}
{"sequence": "HMGVPTEQQSLIGKSGIAATDLRPSGKVEIDGKRYDAVSNYAGFIAKGTPISVVRYETGQIYVE", "values": [{"measurement": "soluble fraction (log2)", "result": 0.205}]}
{"sequence": "HMGYDDVIVINGKNETYGFPTKVEDDPVLSLVIKGDRSIDYAEERRLFYVAMTRTKNRVFFVAP", "values": [{"measurement": "soluble fraction (log2)", "result": 0.0548}]}
{"sequence": "HMGYGEQEAEATKYMSLHAIMSADETLSKMYTPENQHKLMTHVMEQNGIKNVKDYLTPPSELP", "values": [{"measurement": "soluble fraction (log2)", "result": 0.016}]}
{"sequence": "HMGYPYDTVTTAKVNLRAKRSTSSDILKKIPEGATVTVKGVTGTFASVDYNGTSGYVKVDYLV", "values": [{"measurement": "soluble fraction (log2)", "result": -0.46}]}
{"sequence": "HMGYSSKISELLTKYNMNASELAQKVGVPPTTIYSIIKRDSKKADIEVLIKIAKLFNVPVEYF", "values": [{"measurement": "soluble fraction (log2)", "result": -2.38}]}
{"sequence": "HMGYTPGVVIQKSAILEEINQPDLALGMMLEAVKKDSQNLDILNRLVTLLIDQKKNEDAEIYNKKIIT", "values": [{"measurement": "soluble fraction (log2)", "result": 0.234}]}
{"sequence": "HMHAGMKSWTIQYEKSPIYGSFLMYKDGNIYIQKEDNVVVHFPLDRFSQNDQAILKSRIEKIDQINKSS", "values": [{"measurement": "soluble fraction (log2)", "result": -0.761}]}
{"sequence": "HMHAPKIIVLTINPDKIRDVIGPGGKMIKSIVAATGVKMDVEDDGKIHISSSDQKAADEAIRMINEITAEA", "values": [{"measurement": "soluble fraction (log2)", "result": 0.146}]}
{"sequence": "HMHAPLEVGSVVRIEGQKALGTILSISDREAIVALGALKTTIPLKRLHGVSPAEAQRHLRKTTPAQAVR", "values": [{"measurement": "soluble fraction (log2)", "result": -0.665}]}
{"sequence": "HMHAQDTLMTRAGETRTVKILEIGLEEIKYRIWGLDDSPVIVIDKIDVKQIVFSNGEKMTIVQ", "values": [{"measurement": "soluble fraction (log2)", "result": -1.47}]}
{"sequence": "HMHDLTERQREILQTLASGKMALREILSILSQPPSLRTLRDELYHLKRIGLVDTMGYGRGATWFLTQ", "values": [{"measurement": "soluble fraction (log2)", "result": -0.223}]}
{"sequence": "HMHDNPLSAQEQRVLDLIAAGKTSKEIASQLFLSDGTVRNYTTSIFNKLNANNRVEAINIAQENGW", "values": [{"measurement": "soluble fraction (log2)", "result": 0.866}]}
{"sequence": "HMHDPRLPLPGTLLAREFQGRDIVVKVLDNGFEFDGRRYKSLSAIAQEVTGSKWNGFLFFGI", "values": [{"measurement": "soluble fraction (log2)", "result": -1.33}]}
{"sequence": "HMHDWDITTAAKPEKIFELFSDIPVLETGLKHGTVTLLIDHEPYEVTTFRVDGNYTDGRHPDSVAFT", "values": [{"measurement": "soluble fraction (log2)", "result": 0.189}]}
{"sequence": "HMHGESIPIPNILHKRYADAEQIVNNLRLEIEVTDTGYVRSLPPGAILEQTPGPGERVKSGHIIYVTINAA", "values": [{"measurement": "soluble fraction (log2)", "result": -1.42}]}
{"sequence": "HMHGETLAAKRREEIKVRIQNIYDQSEQIFGYRKITATLRSQGVVVSEKLVSQLMRELEISSVS", "values": [{"measurement": "soluble fraction (log2)", "result": -3.92}]}
{"sequence": "HMHGSSVEIPNIYGLPASEAVQLLDKADLRYEVIDSVYTTEVPKGAVYDLSPKAGSRVKAGRIIFLTLNA", "values": [{"measurement": "soluble fraction (log2)", "result": -0.942}]}
{"sequence": "HMHGSTAVVPQIKNMPYSEASVRLGANGLAIEINDSVYDRDMPPGTVIESWPKAGAVVKQGRQVYVTVTA", "values": [{"measurement": "soluble fraction (log2)", "result": -0.425}]}
{"sequence": "HMHHGALKQALLDETARILAEEGESALSLRRLASNLGVSRTAPYNHFDNKDALLSAVAEEGFRR", "values": [{"measurement": "soluble fraction (log2)", "result": -0.0868}]}
{"sequence": "HMHIELNDTQKRILNFLSDDPNLSAVRLAEQLGISSRNVEKNIKKLKEYGILIRHGSPKNGYWEIVV", "values": [{"measurement": "soluble fraction (log2)", "result": 0.0385}]}
{"sequence": "HMHITSFTIKQADQIVGTTPVREQAVGAAKARAQQTGTPVSVIAYLDTGEEREVIIHPDGTN", "values": [{"measurement": "soluble fraction (log2)", "result": 0.479}]}
{"sequence": "HMHKLTSRQEEILQFIKDYLSEIGYPPTRSEIAQKMGFRSTNAAEEHLRALARKGAIEILPGPSRGLRLP", "values": [{"measurement": "soluble fraction (log2)", "result": -1.13}]}
{"sequence": "HMHKTEIKIPSREDILAVLRQAQAPLTREQVFEHLKLTEDQIPIIEKRLNAMERDGQLMPNRKGMLLLSTK", "values": [{"measurement": "soluble fraction (log2)", "result": -0.0438}]}
{"sequence": "HMHKYEYESLNHVNVGSNLKYISTHFGQPKLIKKSKYHENLNFAYYLEKKFILTLILEGDRVNAYTITG", "values": [{"measurement": "soluble fraction (log2)", "result": -0.732}]}
{"sequence": "HMHLEKGEVVVPDLKGLTMRQVGELLGKLNLRYSFSGTGLAVKQFPESGQIVNQGDIIEVIF", "values": [{"measurement": "soluble fraction (log2)", "result": -0.56}]}
{"sequence": "HMHLLPAREQVAAYLRKAILRQEIREGTILNLADTARQMGVSVTPVREALQLLAAQGLVRLRPNKGAVVMG", "values": [{"measurement": "soluble fraction (log2)", "result": -1.68}]}
{"sequence": "HMHLNVYRDEDEAMLAFKDHLIGTHQPIRVRVEKALPDGTMGHKIVDTTIGRIVFNHNIPQD", "values": [{"measurement": "soluble fraction (log2)", "result": -0.185}]}
{"sequence": "HMHLTEAPLIKITYFEADQKKSGGQYITIINHLKKINEYENLLVLENGVKINIDDIYELESV", "values": [{"measurement": "soluble fraction (log2)", "result": -0.191}]}
{"sequence": "HMHMNFGEILQTKRKEKGFTQEELAHQLLVSSKTISNWETNKTTPDIDNVIRISQLFDISLNQLLLE", "values": [{"measurement": "soluble fraction (log2)", "result": -1.03}]}
{"sequence": "HMHMSKKLADSIISLRRKHGFSQEQLAEKIGVTRQAISNWERGTATPDVETLNLIAKLFDMDLLAIINGE", "values": [{"measurement": "soluble fraction (log2)", "result": 0.0813}]}
{"sequence": "HMHNLYAPTQKEVDHARRVVEAAEAAAREGLGVVSLNGKMVDGPVIDRARLVLSRAELSGIRE", "values": [{"measurement": "soluble fraction (log2)", "result": -0.157}]}
{"sequence": "HMHNNTITLNKKTYVYTASGKKMSKYLGYTYINKGTTLNYYGTKNIKGKTFYYIGDHAYVNAANVGKVTN", "values": [{"measurement": "soluble fraction (log2)", "result": -2.07}]}
{"sequence": "HMHNQIGDKIRELRTRSNLTQADLGKLVGVSMQAVSKWERGGTPDIDVLLSVAKYFNISLDEMVGRT", "values": [{"measurement": "soluble fraction (log2)", "result": -1.51}]}
{"sequence": "HMHPEITLHPVRANIYSISVKNATSMEIYSVSGQLVGIRELKEGTNTLDLTGYINGVYIVNLQNKAFKLVK", "values": [{"measurement": "soluble fraction (log2)", "result": -2.38}]}
{"sequence": "HMHPELSDSQRTLIALMASGLKDEAIAVEMGVGARTVRRKVQELYELLGVRTRFQAGVAANQRGW", "values": [{"measurement": "soluble fraction (log2)", "result": -2.34}]}
{"sequence": "HMHPKDVPTRRELEVLQAVSEGLSTAEIGLRLDITENTVETFRRRLIQKFDAKNAIDLVVKAMAQGWIKV", "values": [{"measurement": "soluble fraction (log2)", "result": -2.23}]}
{"sequence": "HMHQGTIEVGSIVHIEGQKALGTILSLTQREAIVGLGALKTTIPLKRLHLATEAEARRHKKSVTPQEAV", "values": [{"measurement": "soluble fraction (log2)", "result": -0.66}]}
{"sequence": "HMHQIFAETVFEDIAFGPRNKGFNEEEVAKQVREAMAFVGLDYDTYAQRSPFQLSGGQMRRVAIAGVVA", "values": [{"measurement": "soluble fraction (log2)", "result": 0.0104}]}
{"sequence": "HMHQKYIITGTRDTYVVSQGETLRTIAEHVYGSRGYARYIIEHNHITHPDDIPVGLTIRLPELELNPDYR", "values": [{"measurement": "soluble fraction (log2)", "result": -1.9}]}
{"sequence": "HMHRAKRTKAQTQSSLESIEGIGPKTRKQLLVHFGGLAEVKAASVSELQKVKGISLDKAQKIYDFFHGS", "values": [{"measurement": "soluble fraction (log2)", "result": -0.617}]}
{"sequence": "HMHRNLSFEEEKEFLSAYTKQAEAGQIVDLNEMKAAYIEKVGHSIGGSQIYRMLERHGWRKVM", "values": [{"measurement": "soluble fraction (log2)", "result": -0.446}]}
{"sequence": "HMHSDSEIEKGYTDDGQKLSNVNGVYMTKSEMYNKGIVEKDPNTGEEVMGRNRVNPVTGELE", "values": [{"measurement": "soluble fraction (log2)", "result": 0.442}]}
{"sequence": "HMHSDWITWWYLKDKRFDDDYSLWDRQPVHPEYFEVVKEFKAPPESNPGGLDEVKRILRTYIPDAFAP", "values": [{"measurement": "soluble fraction (log2)", "result": -1.11}]}
{"sequence": "HMHSESAAHQRTSVELFARIPETGNLQSAQRHFDVINQFGRFPHRNKILQRPSSEQEEAFLRQPGSG", "values": [{"measurement": "soluble fraction (log2)", "result": 0.265}]}
{"sequence": "HMHSILDDIPTVGPARRKALMRRYESLEAIRQATVDELKELPEINEASAEAIVSFFAGQAKEG", "values": [{"measurement": "soluble fraction (log2)", "result": -0.306}]}
{"sequence": "HMHSRTWTSADGVKTFEGELQSYDAASGKVSVILPNHKRITFKQEKLSADDIAWLEKNGNRP", "values": [{"measurement": "soluble fraction (log2)", "result": -0.033}]}
{"sequence": "HMHTGLTNYEYKQIKSSLLKILTQSESMRLGELVDKVDQFESEKVTTVIRFLVGNEELMLFDDTLTLKKQL", "values": [{"measurement": "soluble fraction (log2)", "result": -0.202}]}
{"sequence": "HMHTTIIVASRDIAAGSVLTSHDLSSVAWVGGAVPKGSYTAADLAVGKTAFTAFQQGEPILESRLAS", "values": [{"measurement": "soluble fraction (log2)", "result": -0.35}]}
{"sequence": "HMHVVVIDKQGALSYQGKAITLLDLKNIVIDVPKETPFLIKADKDIHLQSFVEVLDLIKTAGFKKVSLQ", "values": [{"measurement": "soluble fraction (log2)", "result": -2.86}]}
{"sequence": "HMIAANMTISQRIAAALAEYGVMSVKDIAQEVLGATDKKDTEKIRVTLTRDHGKRFRTYSDGTWSLKDWRP", "values": [{"measurement": "soluble fraction (log2)", "result": -2.19}]}
{"sequence": "HMIAAVIAQVANTNERIILEKRYLSFKSWDEIAVEMRISPRWAYTLHERALKAVDQVLSKQNNE", "values": [{"measurement": "soluble fraction (log2)", "result": -4.19}]}
{"sequence": "HMIADDLKSLEGVDQDMLRDLAEAGINTRDDLAELAIDELIEITGVSTEEAEKVIMAARAHWFEEES", "values": [{"measurement": "soluble fraction (log2)", "result": 0.318}]}
{"sequence": "HMIAKEDDGTAFLIDGKISSEEEFKTISKDDILEVFVYKETEIAQKKLDSINSINNTYYTSLIEILLKE", "values": [{"measurement": "soluble fraction (log2)", "result": "≥ 1.04"}]}
{"sequence": "HMIAKIEGQISYVGNRFLIVDVSGVGYKLFVTNEAISLSKVEESIKLWVHTAVRENSIDLYG", "values": [{"measurement": "soluble fraction (log2)", "result": -1.7}]}
